Consider one molecule from article PMC8097376 (EMBO Reports, 2021).

Test [1] deals with T1, RBD mutant derived from SARS-CoV-2 strain B.1.351 (South Africa) (SARS-CoV-2, B.1.351 (RBD K417N, E484K, …, K417N | E484K | N501Y)).
T1 construct: also called RBD_(B.1.351); source: Expi293 cells, purified
Description: BLI. Conditions: both partners purified.

Test [2] addresses T2, RBD mutant derived from SARS-CoV-2 strain B.1.1.7 (UK) (SARS-CoV-2, B.1.1.7 (RBD N501Y), N501Y).
T2 construct: also called RBD_(B.1.1.7); source: Expi293 cells, purified
Description: BLI. The following applies: both partners purified.

B1: nanobody NM1226 (VHH)
VHH: QVQLVESGGGSVQPGGSLRLSCLGSGSLDYYAIGWFRQAPGKEREGVSCIASSGDRTIYADSVKGRFTISRDYGKNTVYLQMNSLKPEDTAMYYCAALQGSYYYTGFVANEYDYWGQGAPVTVSS
B1: the Kd (usually the free concentration of one partner at which half of the binding sites on the other are occupied at equilibrium, for simple one-to-one binding) is approximately 5.5 nM in test [1] and approximately 5.4 nM in test [2].
